Test results reported in patent US20240132624A1 (Ablynx, published 2024).

Legend:
[1] = target: T1, cyno FcRn/b2M (cyno, UniProt Q8SPV9 24-297; Q8SPW0 21-119, biotinylated); test: SPR pH 7.4;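 note: surface plasmon resonance kinetics, periplasmic extracts diluted 1:10 flowed over immobilized target at 25 °C, 120 s association then 600–3600 s dissociation, buffer with 150 mM NaCl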
T1 construct: bought recombinant biotinylated protein (Immunitrack ITF05 or ACRO FCM-C82W5); also called cFcRn; cFcRn/cb2M
T1 sequence (Q8SPV9 24-297 limits assumed, chain 1 of 2): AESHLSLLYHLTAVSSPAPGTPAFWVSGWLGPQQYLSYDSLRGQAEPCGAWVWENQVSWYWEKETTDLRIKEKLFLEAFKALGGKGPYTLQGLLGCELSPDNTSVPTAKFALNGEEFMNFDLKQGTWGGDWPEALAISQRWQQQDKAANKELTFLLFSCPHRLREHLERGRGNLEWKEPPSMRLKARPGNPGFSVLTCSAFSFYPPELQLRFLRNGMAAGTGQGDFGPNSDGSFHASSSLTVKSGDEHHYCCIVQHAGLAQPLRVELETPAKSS
T1 sequence (Q8SPW0 21-119 limits assumed, chain 2 of 2): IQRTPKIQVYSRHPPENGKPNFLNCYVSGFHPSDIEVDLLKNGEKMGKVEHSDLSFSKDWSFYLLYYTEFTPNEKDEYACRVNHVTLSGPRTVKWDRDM
Description: (§1) All kinetic measurements have been performed on ProteOn XPR36 (BioRad Laboratories, Inc.), MASS-2 (Sierra sensors, Gmbh) or SPR-32 (Bruker Corporation). […] The phytip purified periplasmic extracts were diluted 1:10 in running buffer (CPA+150 mM NaCl+0.005% Tw20 at pH 5.5, pH 6.0 or pH 7.4) and injected over the ligand surfaces (association: 120 s at 45 μL/min; dissociation: 600s-3600 s at 45 μL/min). Experiments were carried out at 25° C.

[2] = target: T2, human FcRn/b2M (human, UniProt P61769 21-119, biotinylated); test: SPR pH 7.4;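 note: surface plasmon resonance kinetics, periplasmic extracts diluted 1:10 flowed over immobilized target at 25 °C, 120 s association then 600–3600 s dissociation, buffer with 150 mM NaCl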
T2 construct: bought recombinant biotinylated protein (ACRO FCM-H82W4 or Immunitrack ITF01); also called hFcRn; hFcRn/hb2M
Description: as §1

[3] = target: T1, cyno FcRn/b2M; test: SPR pH 6.0;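 note: surface plasmon resonance kinetics at 25 °C, diluted periplasmic extracts injected over immobilized ligand surfaces, 120 s association then 600–3600 s dissociation, running buffer containing 150 mM NaCl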
Description: as §1

[4] = target: T2, human FcRn/b2M; test: SPR pH 6.0;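 note: surface plasmon resonance kinetics at 25 °C, diluted periplasmic extracts injected over immobilized ligand surfaces, 120 s association then 600–3600 s dissociation, running buffer containing 150 mM NaCl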
Description: as §1

[5] = target: T1, cyno FcRn/b2M; test: SPR off-rate; pH 7.4 vs pH 6.0;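 note: surface plasmon resonance with diluted periplasmic extracts flowed over ligand surfaces, 120 s association and 600–3600 s dissociation at 25 °C, running buffer containing 150 mM NaCl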
Description: as §1

[6] = target: T2, human FcRn/b2M; test: SPR off-rate; pH 7.4 vs pH 6.0;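 note: surface plasmon resonance with diluted periplasmic extracts flowed over ligand surfaces, 120 s association and 600–3600 s dissociation at 25 °C, running buffer containing 150 mM NaCl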
Description: as §1

koff [1] [s⁻¹]	koff [2] [s⁻¹]	koff [3] [s⁻¹]	koff [4] [s⁻¹]	kd ratio pH 7.4/6.0 [5]	kd ratio pH 7.4/6.0 [6]	Binder
0.036	0.033	0.00084	0.00099	43	33	T0263018B11 T57F (VHH, name in Kabat numbering, FLAG3-His6 tagged) VHH: EVQLVESGGGVVQPGGSLRLSCAASGFTFSSYAMYWVRQAPGKGLEWVSAISSGGGSFDYADSVKGRFTISRDNSKNTLYLQMNSLRPEDTALYYCAADTLYTSLTWYSYWGQGTLVTVSS
0.025	0.032	0.00049	0.00071	51	45	T0263018B11 T100bE (VHH, name in Kabat numbering, FLAG3-His6 tagged) VHH: EVQLVESGGGVVQPGGSLRLSCAASGFTFSSYAMYWVRQAPGKGLEWVSAISSGGGSTDYADSVKGRFTISRDNSKNTLYLQMNSLRPEDTALYYCAADTLYTSLEWYSYWGQGTLVTVSS
0.16	0.14	0.0029	0.0039	55	36	T0263018B11 T96A (VHH, name in Kabat numbering, FLAG3-His6 tagged) VHH: EVQLVESGGGVVQPGGSLRLSCAASGFTFSSYAMYWVRQAPGKGLEWVSAISSGGGSTDYADSVKGRFTISRDNSKNTLYLQMNSLRPEDTALYYCAADALYTSLTWYSYWGQGTLVTVSS
0.2	0.16	0.0024	0.0031	83	52	T0263018B11 T96F (VHH, name in Kabat numbering, FLAG3-His6 tagged) VHH: EVQLVESGGGVVQPGGSLRLSCAASGFTFSSYAMYWVRQAPGKGLEWVSAISSGGGSTDYADSVKGRFTISRDNSKNTLYLQMNSLRPEDTALYYCAADFLYTSLTWYSYWGQGTLVTVSS
0.029	0.041	0.00071	0.0011	41	39	T0263018B11 T57S (VHH, name in Kabat numbering, FLAG3-His6 tagged) VHH: EVQLVESGGGVVQPGGSLRLSCAASGFTFSSYAMYWVRQAPGKGLEWVSAISSGGGSSDYADSVKGRFTISRDNSKNTLYLQMNSLRPEDTALYYCAADTLYTSLTWYSYWGQGTLVTVSS
0.18	0.14	0.0032	0.0037	56	38	T0263018B11 T100bL (VHH, name in Kabat numbering, FLAG3-His6 tagged) VHH: EVQLVESGGGVVQPGGSLRLSCAASGFTFSSYAMYWVRQAPGKGLEWVSAISSGGGSTDYADSVKGRFTISRDNSKNTLYLQMNSLRPEDTALYYCAADTLYTSLLWYSYWGQGTLVTVSS
0.024	0.036	0.00042	0.00069	57	52	T0263018B11 T96I (VHH, name in Kabat numbering, FLAG3-His6 tagged) VHH: EVQLVESGGGVVQPGGSLRLSCAASGFTFSSYAMYWVRQAPGKGLEWVSAISSGGGSTDYADSVKGRFTISRDNSKNTLYLQMNSLRPEDTALYYCAADILYTSLTWYSYWGQGTLVTVSS
0.014	0.021	0.00036	0.00047	40	45	T0263018B11 T96V (VHH, name in Kabat numbering, FLAG3-His6 tagged) VHH: EVQLVESGGGVVQPGGSLRLSCAASGFTFSSYAMYWVRQAPGKGLEWVSAISSGGGSTDYADSVKGRFTISRDNSKNTLYLQMNSLRPEDTALYYCAADVLYTSLTWYSYWGQGTLVTVSS
0.027	0.034	0.00064	0.00077	42	44	T0263018B11 T57V (VHH, name in Kabat numbering, FLAG3-His6 tagged) VHH: EVQLVESGGGVVQPGGSLRLSCAASGFTFSSYAMYWVRQAPGKGLEWVSAISSGGGSVDYADSVKGRFTISRDNSKNTLYLQMNSLRPEDTALYYCAADTLYTSLTWYSYWGQGTLVTVSS
0.047	0.067	0.00097	0.0016	49	42	T0263018B11 T96M (VHH, name in Kabat numbering, FLAG3-His6 tagged) VHH: EVQLVESGGGVVQPGGSLRLSCAASGFTFSSYAMYWVRQAPGKGLEWVSAISSGGGSTDYADSVKGRFTISRDNSKNTLYLQMNSLRPEDTALYYCAADMLYTSLTWYSYWGQGTLVTVSS
0.035	0.04	0.0009	0.0011	39	37	T0263018B11 T57L (VHH, name in Kabat numbering, FLAG3-His6 tagged) VHH: EVQLVESGGGVVQPGGSLRLSCAASGFTFSSYAMYWVRQAPGKGLEWVSAISSGGGSLDYADSVKGRFTISRDNSKNTLYLQMNSLRPEDTALYYCAADTLYTSLTWYSYWGQGTLVTVSS
0.092	0.091	0.002	0.0026	46	35	T0263018B11 T96Q (VHH, name in Kabat numbering, FLAG3-His6 tagged) VHH: EVQLVESGGGVVQPGGSLRLSCAASGFTFSSYAMYWVRQAPGKGLEWVSAISSGGGSTDYADSVKGRFTISRDNSKNTLYLQMNSLRPEDTALYYCAADQLYTSLTWYSYWGQGTLVTVSS
0.03	0.037	0.00062	0.00086	48	43	T0263018B11 T57N (VHH, name in Kabat numbering, FLAG3-His6 tagged) VHH: EVQLVESGGGVVQPGGSLRLSCAASGFTFSSYAMYWVRQAPGKGLEWVSAISSGGGSNDYADSVKGRFTISRDNSKNTLYLQMNSLRPEDTALYYCAADTLYTSLTWYSYWGQGTLVTVSS
0.5	0.5	0.0062	0.01	81	50	T0263018B11 W100cA (VHH, name in Kabat numbering, FLAG3-His6 tagged) VHH: EVQLVESGGGVVQPGGSLRLSCAASGFTFSSYAMYWVRQAPGKGLEWVSAISSGGGSTDYADSVKGRFTISRDNSKNTLYLQMNSLRPEDTALYYCAADTLYTSLTAYSYWGQGTLVTVSS
0.028	0.033	0.00073	0.0009	38	37	T0263018B11 T57W (VHH, name in Kabat numbering, FLAG3-His6 tagged) VHH: EVQLVESGGGVVQPGGSLRLSCAASGFTFSSYAMYWVRQAPGKGLEWVSAISSGGGSWDYADSVKGRFTISRDNSKNTLYLQMNSLRPEDTALYYCAADTLYTSLTWYSYWGQGTLVTVSS
0.053	0.053	0.0012	0.0016	44	33	T0263018B11 T96S (VHH, name in Kabat numbering, FLAG3-His6 tagged) VHH: EVQLVESGGGVVQPGGSLRLSCAASGFTFSSYAMYWVRQAPGKGLEWVSAISSGGGSTDYADSVKGRFTISRDNSKNTLYLQMNSLRPEDTALYYCAADSLYTSLTWYSYWGQGTLVTVSS
0.06	0.049	0.0014	0.0015	43	33	T0263018B11 T57I (VHH, name in Kabat numbering, FLAG3-His6 tagged) VHH: EVQLVESGGGVVQPGGSLRLSCAASGFTFSSYAMYWVRQAPGKGLEWVSAISSGGGSIDYADSVKGRFTISRDNSKNTLYLQMNSLRPEDTALYYCAADTLYTSLTWYSYWGQGTLVTVSS
0.15	0.16	0.0024	0.0036	63	44	T0263018B11 W100cF (VHH, name in Kabat numbering, FLAG3-His6 tagged) VHH: EVQLVESGGGVVQPGGSLRLSCAASGFTFSSYAMYWVRQAPGKGLEWVSAISSGGGSTDYADSVKGRFTISRDNSKNTLYLQMNSLRPEDTALYYCAADTLYTSLTFYSYWGQGTLVTVSS
0.017	0.024	0.00035	0.00054	50	45	T0263018B11 T96Y (VHH, name in Kabat numbering, FLAG3-His6 tagged) VHH: EVQLVESGGGVVQPGGSLRLSCAASGFTFSSYAMYWVRQAPGKGLEWVSAISSGGGSTDYADSVKGRFTISRDNSKNTLYLQMNSLRPEDTALYYCAADYLYTSLTWYSYWGQGTLVTVSS
0.13	0.14	0.003	0.0073	45	19	T0263018B11 W100cD (VHH, name in Kabat numbering, FLAG3-His6 tagged) VHH: EVQLVESGGGVVQPGGSLRLSCAASGFTFSSYAMYWVRQAPGKGLEWVSAISSGGGSTDYADSVKGRFTISRDNSKNTLYLQMNSLRPEDTALYYCAADTLYTSLTDYSYWGQGTLVTVSS
0.054	0.045	0.0013	0.0015	42	30	T0263018B11 T57P (VHH, name in Kabat numbering, FLAG3-His6 tagged) VHH: EVQLVESGGGVVQPGGSLRLSCAASGFTFSSYAMYWVRQAPGKGLEWVSAISSGGGSPDYADSVKGRFTISRDNSKNTLYLQMNSLRPEDTALYYCAADTLYTSLTWYSYWGQGTLVTVSS
